From PMC9437119 come the findings set out here.

In the experiment the target is T1, Flag-tagged human Fis1 (WT) (human), Q9Y3D6.
T1 chain: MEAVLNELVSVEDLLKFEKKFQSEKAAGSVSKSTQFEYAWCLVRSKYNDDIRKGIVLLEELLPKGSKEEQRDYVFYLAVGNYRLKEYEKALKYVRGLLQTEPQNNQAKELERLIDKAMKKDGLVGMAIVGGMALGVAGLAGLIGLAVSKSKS
Kind of experiment: SDS-resistant oligomers on SDS-PAGE immunoblot of the immunoprecipitate; anti-myc immunoprecipitate of the Mid51/Fis1 complex from HeLa lysate heated 20 min at 55°C, 4-20% Tris-Glycine SDS-PAGE; SDS-resistant complexes detected with anti-myc (Mid51 species) or anti-Flag (Fis1 species); species normalized to monomer. The settings on record: remark: other sources report otherwise. For orientation: A western blot detects proteins with antibodies after separation by electrophoresis.

B1: Flag-tagged human Fis1 (WT), Q9Y3D6 1-152 (natural protein)
chain: T1 chain
Regarding B1, the stoichiometry N (usually a count of units in the complex or per binding partner) amounted to 4.
